Test: yeast display, Sf9 membrane polyspecificity reagent, FACS + sequencing; frameworks hold sequencing errors
Outline: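 Sorting gates, low and high (top ~1%), were placed on anti-HA fluorescence to track expression and on streptavidin fluorescence to track reagent binding. A clone's polyreactivity label is taken from the gate it came out of. The reagent was 10% biotinylated, detergent-solubilized Sf9 membrane, applied for 1 hour at 4 °C to galactose-induced yeast display cells.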

Row | Sequence | polyreactivity (PSR sort gate)
1 | QVQLVESGGGLVQAGGSLRLSCAPSGFTFVFYAMGWYRQAPGKERELVAAISSRGGSTYYADSVKGRFTISRDNAKNTVYLQMNSLKPEDTAVYYCNVVSTYWTTYEEYYWGQGTQVTVSS | high polyreactivity
2 | QVQLEESGGGLVQAGGSLRLSCAASGNIFVSYAMGWYRQAPGKERELVAAISKSGGSTYYADSVKGRFTISRDNAKNTVYLQMNSLKPEDTAVYYCAARWYNRVKYQKYNYWGQGTQVTVSS | high polyreactivity
3 | QVQLVESGGGLVQAGGSLRLSCAASGSIYPYNAIGLYRQAPGKERELVAAISYRGGRTYYADSVMGRFTISRDNAKNTVYLQKNSLKPEDTAVYYCNADSIYSARGWLYGYWGQGTQVTVSS | low polyreactivity
4 | QVQLEESGGGLVQAGGSLRLSCASSGRIFQVNTMGWYRQAPGKESELVAAISASVGSTYYADSVKGRFTISRDNAKNTVYLQMNILKPEDTAVYYCAKSLGYSVVRTLSPTGFYYWGQGTQVTVSS | low polyreactivity
5 | QVQVVDSGGGLVQAGGSLRLSCAASGRTFIGNAMGWYRQAPGKERELVATITTSAGTTYYADSVKGRITISRDNAKITVYVQMLSLKPEDTAVYYCAADASQSEGDYWGQGTQVTVAS | high polyreactivity
6 | QVQLVESGGGLVQAGGSLRLSCAASGSTFDYYAMGWYRQAPGKERELVATISYSDGTTYYADSVKGRFTISRDNAKNTVYLQMNSLKPEDTAVYYCAADTYVYEEQNVWRMDYWGQGTQVTVSS | low polyreactivity
7 | QVQLVESGGGLDQAGGSLRLSCAASGLTFYKYAMGWYRQAPRKERELVASISRTGGSTYYADSVKGRFTISRDNANNTVYLQMNSLKPEDTAFYYCAARRGYYYGRVGYWGQGTQVTVSS | high polyreactivity
8 | QVQLVESGGGLVQAGGSLRLSCAASGLTLRNYAKGWYREAPGKDRELVAAITTGGGRTFYADSVKGRFTISRDKAKNTVYLETNSLNPEDTAVYYCAAERAILSSDKQSLWRFDYWGQGTQVTVSS | low polyreactivity
9 | QVQVVESGGGLVQAGGSLRLRCAASGRSFVRNAMGWYRQAPGKEREFVAAINSGGSTYYADSVKGRFTISRDNAKNTVYLQMNSLKPEDTAVYYCAAELHIYYSWYWYDYWGQGTQVTVSS | high polyreactivity
10 | QVQLVESGGGLVQAGGSLRLSCAASGRIFARNAMGWYRQAPGKERELVATIRVGGGSTYYADSVKGRFTISRDNAKNTVYLQMNSLKPEDTAVYYCAVRQLYSYPGDRRGYYWGQGTQVTVSS | low polyreactivity
11 | QVQLVESGGGVVQAGGSLRLSCAASGRICAYYTMGWYRQAPGKERELVAAINQSGGSTYYADSVKGRFTISRDNAKYTEYLQMNSLKPEDTAVFYCAAQPTIYSTPHPEYNYWGQGTQVNVSS | low polyreactivity
12 | QVQLVESGGGLVQAGGSLRLSCAASGRIFQGYVMGWYRQAPGKERELVAAITTGGSTYYADSVKGRFTISRDNAKNTVYLQMNSLKPEDTAVYYCNAVVYVSGYNPYIFGYWGQGTQVTVSS | low polyreactivity
13 | QVQLVESGGGLVQAGGSLRLSCAASGSTFTFYAMGWYRQAPGKERELVASITQSTGSTHYADSVKGRFTISRDNAKNTVYLQMNSLKPEDTSVYYCNAQKIVYYWVTLFPYYYWGQGTQVTVSS | low polyreactivity
14 | QDQLVESGGGLVQAGGSLRLRCAASGSIFGGYAMGWYRQAPGKERELVDAISSGGTTNYADSVMGRFTISRDNAKNTVYLQMNSLKQEDRAVYYCAREYGTTYQSVQVKFIQLDYWGQGTLVTVSS | low polyreactivity
15 | QVQLVESGGGLVQAGGSLRLSCAASGRTIYRNAMGWYRQAPGKERELVAAITSGGSTNYADSVKGRFTLSRDNAKNTGYLQMNSLKPEDTAVYYCAATRGRYLWYYRYDYWGQGTQVTVSS | high polyreactivity
16 | QVQLVESGGGLVQAGGSLRLSCAASGSIFGYYAMGWYRQAPGKERELVAAITTRGGRTYYADSVKGRFTISRDNAKNTVYFQINSLKPEDTAVYYCAARTGRGRYDYWGQGTQVTVSS | high polyreactivity

Row | Sequence | polyreactivity (PSR sort gate)
17 | QVQLVESGGGLVQAVGSLRLSCAASGRIFNYYAMGWYRQAPGKEREMVAGISGYGTSTYYADSVKGRFTISRDNAKNTVYLQMNSLKPEDTAVYYCAADVFRDDVWLDYWGHGTQVTVSS | low polyreactivity
18 | QVQLVESGGGLVQAGGSLRLSCAASGFIFDYYAMGWYRQAPGKERELVAAITSRGGSTYYADSVKGRFTISRDNAKNTVYLQMNSLKQEDTAVYYCAARRRSAEYNYWGHGTQVTVSS | high polyreactivity
19 | QVQLGESGGGLVQSGGSLRLSCAASGSIFDWYDKGWYRQAPGKERELVATITRDGSTNYADSVKGRFTISRDNAKNTVYLQMNSLKPEDTAVYYCAAESRRFWYGLFGNEYGYWGQGTQVTVSS | low polyreactivity
20 | QVQLVESAGGIDQAGGRLRLSSAASGGIFTPYAMGCYRQAPGKDRELVATISSDGSTNYADSVKGRFTISRDNAKNTVYLQMNSLKPEDTAVYYCNIDRHKVAGTLPGWWYDYLGQGTQVTVSS | low polyreactivity
21 | QVQLVESGGGLVQAGGSLRLSCAASGSTFGTYAMGWYRQATGKERELVAAISRGVSTYYADSVKGRFTISRDKAKNTVYLEMNSLKPEDTAVYYCAADPFWQTVYVYYTYSGTSYYWGQGTQVTVSS | low polyreactivity
22 | QVQLVESGGGLVQAGGSLRLSCAASGSTFHTNAMGWYRQAPGKERELVDAISRSGTSTYYADSVKGRFTISRDNAKNSVYCQMNSLNPEDTAVYYCAAYGPRVNGEIGREYYYWGQGTQVTVSS | low polyreactivity
23 | QVQLVDSGGGLVQAGGSLRLSCAASGITFYYYAMGWYRQAAGKERELVAAISSRGGSTYYADSVKGRFTISRDNAKNTVYLQRNSLKPEDTAVYYCAALYGVSEEDDYWGQATQVTVSS | high polyreactivity
24 | QVQLVESGGGLFQAGGSLRLTCAASGSTFPYHTMGWYRQATGKQRDFVAAITGDGGTTYYADSVKGRFTISRDNAKNTVYLQMNSLKPEDTAVYYCNALYAPYGWFYCLYDYWGPGTQVTVSS | low polyreactivity
25 | QVQLVESGGGLVQAGGSLRLSCAASGRTFRYNAMGWYRQAPGKERELVAAITWGGGSTYYADSVKGRFTISRDNAKYTVYLQMNSLKPEDTAVYYCNADYIGNYQSIYQYDYWGQGTQVTVSS | low polyreactivity
26 | QVQLVESGGGLVQAGGSLRLSCAASGFTFYRYAMGCYRQAPGKERELVAAITSSGGNTYYADSVKGRFTISRDNGKNTVYLQMNSLKPEDTAVYYCAKYTRIRFEYEYWGLGTQVTVSS | high polyreactivity
27 | QVQLVESGGGLVQAGGSLRLSGAASGRTFRKYAMGWYRQAPGKERELVAAISWSGGSTYYANSVKGRFTISRDNAKNTVYLQMNSLKPEDTAVYYCAAVPVHTGSLYWGFTTGYDYWGQGTQVTVSS | low polyreactivity
28 | QVQLVESGGGLVQAGGSLRLSCAASGSIFKWYAMGWSRQAPGKERELVAAITNGGGSTYYADSVKGRFTISRDNAKNTVYLQMNSLKAEDTAVYYCAKDGHSYYPWVYDYWGQGTQVTVSS | low polyreactivity
29 | QVQLVESGGGLVQAGGSLRLSCAASVRIFGSNVMGWYRQAPGKERELVASISSGGTTYYADSVKGRFTISRDNAKNTVYLHMNSLKPEDTAVYYCAKQWTRIYQYRWYPGTRTGYDYWGQGTQVTVSS | high polyreactivity
30 | QVQLVESGGGLVQAGGSLRLSCAASGSTFGLYGMGWYRQAPGKDRELVAAITWSGGSTYYADSVKGRFTISRDNAKNTVYLQMNSLKPEDTAVYYSNADYYYWFSYGIGDNEYDYWGQGTQVTVSS | low polyreactivity
31 | QVQLVESGGGLVQAGGSLRLSCAASGITFVRYAMGWYRQAPGKERELVAAISSGGRTIYADSVKGRFTISRDHANNTVFVHMNSLKPEDTAVYYCSKRRARSGQDYDYWGQGTQVTVSS | low polyreactivity
